According to article PMC10440015:
Several values for one entry are separate records, joined by “and”; a condition that tells them apart may be missing. Equal values may be shown once.

Key:
[1] = target: FFNFFKG-Toyopearl resin; assay: affinity chromatography
[2] = target: KWWIWAG-Toyopearl resin; assay: affinity chromatography
[3] = target: …-Toyopearl resin; assay: affinity chromatography
[4] = target: FNHFFIG-Toyopearl resin; assay: affinity chromatography
[5] = target: GYISRHPG-Toyopearl resin; assay: affinity chromatography
[6] = target: WKAHNKG-Toyopearl resin; assay: affinity chromatography
[7] = target: WWIKISG-Toyopearl resin; assay: affinity chromatography
[8] = target: the peptide-based adsorbents; assay: affinity chromatography
[9] = target: KFNHWFG-Toyopearl resin; assay: affinity chromatography
[10] = target: FFNFFKG-Toyopearl resin; assay: breakthrough chromatography
[11] = target: KFNHWFG-Toyopearl resin; assay: breakthrough chromatography
[12] = target: KFNHWFG-Toyopearl resin; assay: batch adsorption isotherm

| Substance | yield (AAV titer in elution fraction vs. load) [1] | yield (AAV titer in elution fraction vs. load) [2] | yield (AAV titer in elution fraction vs. load) [3] | loss (AAV titer in flow-through and wash vs. load) [4] | loss (AAV titer in flow-through and wash vs. load) [5] | loss (AAV titer in flow-through and wash vs. load) [1] | loss (AAV titer in flow-through and wash vs. load) [6] | yield (AAV titer in elution fraction vs. load) [6] | loss (AAV titer in flow-through and wash vs. load) [2] | loss (AAV titer in flow-through and wash vs. load) [3] | loss (AAV titer in flow-through and wash vs. load) [7] | loss (AAV titer in flow-through and wash vs. load) [8] | yield (AAV titer in elution fraction vs. load) [8] | loss (AAV titer in flow-through and wash vs. load) [9] | yield (AAV titer in elution fraction vs. load) [9] | DBC10% (dynamic binding capacity at 10% breakthrough) (vp AAV per mL of resin) [10] | DBC10% (dynamic binding capacity at 10% breakthrough) (vp AAV per mL of resin) [11] | Kd [12] |
| --- | --- | --- | --- | --- | --- | --- | --- | --- | --- | --- | --- | --- | --- | --- | --- | --- | --- | --- |
| Adeno-associated virus serotype 9 capsid (complex) | 72.4% | 57.2% | 61.7% and 43.9% and 53.7% |  |  |  |  |  |  |  |  |  |  |  |  |  |  |  |
| Adeno-associated virus serotype 2 capsid (complex) |  |  | 54.9% and 44.8% | < 1.7% | < 1.7% | < 1.7% | < 1.7% | 79.8% | < 1.7% | < 1.7% | < 1.7% | 1 to 4% | 40 to 65% | < 1.7% | 45% | 1.4e+13 | 1.33e+13 | 0.16 pM |
